US20240158497A1 (published 2024)

T1: Macaca fascicularis GP130 extracellular domain expressed with a C-terminal myc-myc-hexahistidine tag (Macaca fascicularis, UniProt P40189 23-619 (human entry))
T1 construct: Monomeric reagent; also called mfGP130-mmH; mfGP130-MMH
T1 chain: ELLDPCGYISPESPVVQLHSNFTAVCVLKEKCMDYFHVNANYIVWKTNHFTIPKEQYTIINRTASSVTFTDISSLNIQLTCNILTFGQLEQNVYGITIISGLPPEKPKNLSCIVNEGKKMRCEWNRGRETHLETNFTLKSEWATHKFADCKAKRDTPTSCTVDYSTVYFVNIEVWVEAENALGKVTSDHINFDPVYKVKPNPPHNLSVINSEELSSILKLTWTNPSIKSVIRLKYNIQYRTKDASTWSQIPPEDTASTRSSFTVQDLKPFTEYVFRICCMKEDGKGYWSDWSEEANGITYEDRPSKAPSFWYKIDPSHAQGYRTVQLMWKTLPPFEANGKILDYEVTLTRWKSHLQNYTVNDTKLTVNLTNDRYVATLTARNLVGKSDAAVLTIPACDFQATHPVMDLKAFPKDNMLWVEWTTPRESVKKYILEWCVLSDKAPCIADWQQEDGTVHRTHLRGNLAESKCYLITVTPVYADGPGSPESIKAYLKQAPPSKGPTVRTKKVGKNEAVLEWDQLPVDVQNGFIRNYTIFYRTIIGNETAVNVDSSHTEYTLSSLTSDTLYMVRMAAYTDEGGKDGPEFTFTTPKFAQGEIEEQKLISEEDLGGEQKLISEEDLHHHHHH

B1: MAb16665 (antibody, V domains shown)
VH: QVQLVESGGGVVQPGRSLRLACAASGFTFRSYGMHWVRQAPGKGLEWVAVIWYDGSNKYYTDSVKGRFTISRDNSKNTLYLQMNSLRAEDTAMYYCAIDKWATVTTYLFDYWGQGTLVTVSS
VL: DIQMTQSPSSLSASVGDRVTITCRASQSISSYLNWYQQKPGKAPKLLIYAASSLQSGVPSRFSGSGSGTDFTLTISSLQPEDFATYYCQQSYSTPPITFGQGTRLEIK
B2: MAb16623 (antibody, V domains shown)
VH: EVQLVESGGGLVQPGGSLRLSCAASGLTFSSYEMNWVRQAPGKGLEWVSHISSAGSTKYYADSVKGRFTISRDNAKNSLFLQMNSLRAEDTAIYYCAGYNYAYYYFGVDVWGQGTTVTVSS
VL: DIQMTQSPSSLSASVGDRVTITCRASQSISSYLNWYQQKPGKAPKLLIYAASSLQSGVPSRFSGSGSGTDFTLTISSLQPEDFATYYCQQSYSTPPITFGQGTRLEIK
B3: MAb16636 (antibody, V domains shown)
VH: QLQLQESGPGLVKPSETLSLICTVSGGSISSNNYYWGWIRQPPGKGLEWIGNLYGSGSTYYNPSLKSRVTISVDTSKNQFSLKLSFVTAADTAVYHCARWDTNGGAFDIWGQGTMVTVSS
VL: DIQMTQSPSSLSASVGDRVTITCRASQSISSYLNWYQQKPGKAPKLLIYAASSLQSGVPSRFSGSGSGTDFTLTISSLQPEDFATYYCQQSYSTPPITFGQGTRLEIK
B4: MAb16666 (antibody, V domains shown)
VH: EVQLVESGGGLVQSGGSLRLSCAASGFTFSRYEMNWVRQAPGKGLEWVAYISNTGTTRDYSDSVKGRFTISRDNAKNSLYLQMSSLRVEDTAVYYCVREKFSGTSDWFDPWGQGTLVTVSS
VL: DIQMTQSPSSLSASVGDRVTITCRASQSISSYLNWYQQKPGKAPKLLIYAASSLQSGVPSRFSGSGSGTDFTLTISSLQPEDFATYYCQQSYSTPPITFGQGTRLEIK
B5: MAb16622 (antibody, V domains shown)
VH: EVQLVESGGGVVRPGGSLRLSCTASGFTFDDYGMSWVRQAPGKGLEWVSGINWNGGRTEYADAVKGRFIISRDNAKNSLYLQMNSLRAEDTALYFCARTELRWDYWGQGTLVTVSS
VL: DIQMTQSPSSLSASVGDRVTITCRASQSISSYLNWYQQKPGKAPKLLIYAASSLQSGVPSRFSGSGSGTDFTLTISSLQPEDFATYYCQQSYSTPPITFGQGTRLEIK
B6: MAb16669 (antibody, V domains shown)
VH: EVQLVESGGGLVQPGGSLRLSCAASGFTFSSYAMNWVRQAPGKGLEWVSAISGSGDSTYYTDSVKGRFTISRDNSKNTLYLQMNTLRAEDTAVYYCAKEEIVMLVGATPGWFDPWGQGTLVTVSS
VL: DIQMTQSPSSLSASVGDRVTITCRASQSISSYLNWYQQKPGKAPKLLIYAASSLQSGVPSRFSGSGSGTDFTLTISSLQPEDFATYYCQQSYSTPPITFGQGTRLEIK
B7: MAb16656 (antibody, V domains shown)
VH: EVQLVESGGGLVQPGRSLRLSCAASGFTLDDFAMHWVRQAPGKGLEWVSGISWNSGNIGYADSVKGRFTISRDNARNSLYLQMNSLRAEDTALYYCTSGYYLYYAMDVWGQGTTVTVSS
VL: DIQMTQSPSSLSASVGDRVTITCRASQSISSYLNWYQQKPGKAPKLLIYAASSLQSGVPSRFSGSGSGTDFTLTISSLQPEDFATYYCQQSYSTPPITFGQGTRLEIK
B8: MAb16673 (antibody, V domains shown)
VH: EVQLVQSGAEVKKPGESLKISCKGSGYSFTSYWIDWVRQMPGKGLEWMGIIYPDDSDTRYSPSFQGQVTMSVDKSISTAYLQWSSLKASDTAIYYCARHERGIVEAGTDYYYYYGMDVWGQGTTVTVSS
VL: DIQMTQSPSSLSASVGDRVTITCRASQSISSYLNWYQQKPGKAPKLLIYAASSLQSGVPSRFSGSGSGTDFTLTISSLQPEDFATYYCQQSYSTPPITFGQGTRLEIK
B9: MAb16662 (antibody, V domains shown)
VH: EVQLVESGGGLVQPGGSLRLSCTASGFTFSNYAIFWVRQAPGKGLEYVSGISNNGVTKYYADSVRDRFTISRDNSRNTVSIQMDSLRTEDMAVYYCARENWGSDDGFDIWGQGTMVTVSS
VL: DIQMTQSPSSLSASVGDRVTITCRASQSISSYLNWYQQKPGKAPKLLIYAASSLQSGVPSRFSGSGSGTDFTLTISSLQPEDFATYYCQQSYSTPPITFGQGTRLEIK
B10: MAb16664 (antibody, V domains shown)
VH: QVQLVQSGTEVKKPGSSVKVSCKASGGTFSTYPINWVRQAPGQGLEWMGGIIPIFGTASYAQKFQGRVAITTDESTSTAYMELNSLRSEDTAVYYCARERPNWGSNDYWGQGTLVTVSS
VL: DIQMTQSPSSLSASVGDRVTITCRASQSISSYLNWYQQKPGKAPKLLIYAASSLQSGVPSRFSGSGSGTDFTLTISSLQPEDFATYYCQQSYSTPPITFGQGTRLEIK
B11: MAb16659 (antibody, V domains shown)
VH: QVQLVQSGPEVKKPGSSVKVSCKASGGTIDRNEITWVRQAPGQGLEWMGVIIPILGEAHYERKFQGRLTITMDESTSTAYMELSNLRSEDTAVYYCARERAARGYLDYWGQGTLVTVSS
VL: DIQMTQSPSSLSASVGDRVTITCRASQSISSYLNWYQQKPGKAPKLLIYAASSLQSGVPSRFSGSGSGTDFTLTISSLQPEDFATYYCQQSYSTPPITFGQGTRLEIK
B12: MAb16637 (antibody, V domains shown)
VH: QVQLVQSGAEVKKPGASVKVSCKASGYTFTSLGISWVRQAPGQGLEWMGWISAYSGNRDYAQKFQGRVTMTTDTSTSTAYMELRSLRSDDTAVYYCARSLRFDYWGQGTLVTVSS
VL: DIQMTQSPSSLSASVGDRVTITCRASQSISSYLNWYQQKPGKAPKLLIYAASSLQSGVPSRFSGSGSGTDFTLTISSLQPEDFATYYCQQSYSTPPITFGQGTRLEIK

These binders were tested against T2, human GP130 extracellular domain expressed with a C-terminal myc-myc-hexahistidine tag (human, UniProt P40189 23-619) (assay: SPR (Biacore 4000), mAb captured on anti-human Fc, 37 C).
T2 construct: Monomeric reagent; also called hGP130-mmH; hGP130-MMH
Experimental: (§1) Equilibrium dissociation constant (KD) for different GP130 reagents binding to purified anti-GP130 monoclonal antibodies were determined using a real-time surface plasmon resonance based Biacore 4000 biosensor. All binding studies were performed in 10 mM HEPES, 150 mM NaCl, 3 mM EDTA, and 0.05% v/v Surfactant Tween-20, pH 7.4 (HBS-ET) running buffer at 25° C. and 37° C. The Biacore sensor surface was first derivatized by amine coupling with a monoclonal mouse anti-human Fc antibody (GE, #BR-1008-39) to capture anti-GP130 monoclonal antibodies. […] Reagents tagged with “mmH” are monomeric, whereas reagents tagged with “mFc” are dimeric. Thus, for example, “hGP130-mmH” is also referred to as “monomeric human GP130,” and “hGP130-mFc” is also referred to as “dimeric human GP130.”
(§2) The association rate (k a) and dissociation rate (kd) were determined by fitting the real-time binding sensorgrams to a 1:1 binding model with mass transport limitation using Scrubber 2.0c curve-fitting software. Binding dissociation equilibrium constant (KD) and dissociative half-life (t ½) were calculated from the kinetic rates as: […]

| 100 nM Ag Bound [RU] | Kd [nM] | koff [s⁻¹] | kon [M⁻¹ s⁻¹] | t½ [min] | Binder |
| --- | --- | --- | --- | --- | --- |
| 19 | 164 | 0.0693 | 423000 | 0.2 | B1 |
| 68 | 32.2 | 0.0123 | 381000 | 0.9 | B2 |
| 50 | 71.6 | 0.00441 | 61600 | 2.6 | B3 |
| 104 | 17.1 | 0.0101 | 588000 | 1.1 | B4 |
| 30 | 225 | 0.0574 | 255000 | 0.2 | B5 |
| 25 | 19.3 | 0.00106 | 55100 | 11 | B6 |
| 50 | 60.7 | 0.00426 | 70100 | 2.7 | B7 |
| 40 | 75.4 | 0.0404 | 536000 | 0.3 | B8 |
| 17 | 134 | 0.0585 | 436000 | 0.2 | B9 |
| 16 | 14.2 | 0.00826 | 580000 | 1.4 | B10 |
| 82 | 1.84 | 0.00171 | 928000 | 7 | B11 |
| 110 | 17.3 | 0.00342 | 197000 | 3 | B12 |

Target: T1, Macaca fascicularis GP130 extracellular …
Test: as above
Experimental: as §1, §2

| 100 nM Ag Bound [RU] | Kd [nM] | koff [s⁻¹] | kon [M⁻¹ s⁻¹] | t½ [min] | Binder |
| --- | --- | --- | --- | --- | --- |
| 14 | 205 | 0.101 | 492000 | 0.1 | B1 |
| 60 | 44.3 | 0.0156 | 352000 | 0.7 | B2 |
| 25 | 239 | 0.00945 | 39500 | 1.2 | B3 |
| 90 | 24.7 | 0.0131 | 528000 | 0.9 | B4 |
| 28 | 198 | 0.0537 | 272000 | 0.2 | B5 |
| 8 |  |  |  |  | B6 |
| 47 | 61.3 | 0.00411 | 67000 | 2.8 | B7 |
| 64 | 34.1 | 0.0211 | 617000 | 0.5 | B8 |
| 14 | 167 | 0.0592 | 355000 | 0.2 | B9 |
| 16 | 11.6 | 0.00788 | 680000 | 1.5 | B10 |
| 78 | 2.34 | 0.00174 | 747000 | 7 | B11 |
| 104 | 14.8 | 0.00263 | 178000 | 4 | B12 |

Target: T1, Macaca fascicularis GP130 extracellular …
Test: SPR (Biacore 4000), mAb captured on anti-human Fc, 25 C
Experimental: as §1, §2

| 100 nM Ag Bound [RU] | Kd [nM] | koff [s⁻¹] | kon [M⁻¹ s⁻¹] | t½ [min] | binding result | Binder |
| --- | --- | --- | --- | --- | --- | --- |
| 16 | 233 | 0.0505 | 217000 | 0.2 |  | B1 |
| 74 | 25.5 | 0.00476 | 187000 | 2.4 |  | B2 |
| 23 | 107 | 0.00216 | 20100 | 5 |  | B3 |
| 123 | 18.3 | 0.0053 | 290000 | 2.2 |  | B4 |
| 34 | 151 | 0.02 | 132000 | 0.6 |  | B5 |
| 3 |  |  |  |  | no binding (tested: 100 nM) | B6 |
| 42 | 19 | 0.000846 | 44400 | 14 |  | B7 |
| 86 | 22.2 | 0.00693 | 312000 | 1.7 |  | B8 |
| 15 | 184 | 0.038 | 207000 | 0.3 |  | B9 |
| 13 | 3.21 | 0.00175 | 543000 | 7 |  | B10 |
| 74 | 0.812 | 0.00044 | 542000 | 26 |  | B11 |
| 87 | 15.9 | 0.00109 | 68300 | 11 |  | B12 |
